In the nanobody polyreactivity screen of Harvey et al. (2022):

Experiment: yeast display, Sf9 membrane polyspecificity reagent, FACS + sequencing; frameworks hold sequencing errors
Summary of the method: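 Sorting gates, low and high (top ~1%), were placed on anti-HA fluorescence to track expression and on streptavidin fluorescence to track reagent binding. A clone's polyreactivity label is taken from the gate it came out of. The reagent was 10% biotinylated, detergent-solubilized Sf9 membrane, applied for 1 hour at 4 °C to galactose-induced yeast display cells.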

Row | Sequence | polyreactivity (PSR sort gate)
1 | QVQLVESGGGLVQAGGSLRLSCAASGSIFSYYAMGWYRQAPGKERELVAAITTSGGSTYYADSVKGRFTISRDNAKNTVYLQMNSLKPEDTAVYYCAVDQYDRTTAFWYWYPYYYWGQGTQVTVSS | low polyreactivity
2 | QFQLVESGGGLVQAGGSLRLSSAASGFIFAHNAMGWYRQAPGKERELVDAITSSGGSTYYADSVKGRFSISRDNAKNTVYLQMNSLKPEDTAVYYCNAYTYARRGYDYWGQGTQVTVSS | high polyreactivity
3 | QVQLVESGGGLVQAGGSLRLSCAASGSISAPNAMGWYRQAPGKERALVATINSGGRTNYADSVKGRFTISRDNAKNTVYFQMNSLKPEDTAVYYCNTVVRGAYTYGDVSKYDYWGHGTQVTVSS | low polyreactivity
4 | QVQLVESGGGLVQAGGSLRLSCAASGSTFQVYGLGWYRQAPGKERELVAAISRSGGRTYYADSVKGRFTISRDNAKNTVYLQMNSLKPEDTAVYYCAKTYQTTTSKSGYYYWGQGTQVTVSS | high polyreactivity
5 | QVQLVESGGGLVQAGGSLRLSCAASGSIFSYYARGWYRHAPGKERELVADITWDGGSTYYADSVKGRFTISRDNAKNTVYLQMNSLKPEDTAVYYCAAGRIVWSDYYVYTLYDYWGQGTQVTVSS | high polyreactivity
6 | QVQLEESGGGLVQAGGSLRLSCAASGSTFSYNTMGWYRQAPGKERELVASITWSGGSTNYADSVKGRFTISRDNAKNTVYLQMNSLKPEDTAVYYCAKDYISVWNVRASDYYWYDYWGQGTQVTVSS | low polyreactivity
7 | QVQLVESAGGLVQAGGSLRLSCAASGSTFYPNAMGWYRQAPGKERELVAAISRGTRTKYADSVKGRFTISRDNAKNTVYLQMNSMKPEDTAVYYCAPLTYQSYWSVDGYYYWGQGTQVTVSS | high polyreactivity
8 | QVHLEESGAGLVQAGGSLRISCAASGFIFDYYAMGWYRQAPGKERELVATITSRGGSTYYADSVKGRFTISRDNAKNTVSLQMNRLKPDYNGVYYCAAVSHPGRKYYYWGQGTQVTVSS | high polyreactivity
9 | QVQLVESCGGLVQAGGSLRLRCAASGSIFSGYVMVWYRPAPGKERELVAAISGSGGSTYYADSVKGRFTISRYNAKNTVYLQMNSLKPEDTAVYYCNVDRSPTHIVGYGYWGQGSQVTVSS | low polyreactivity
10 | QVQLVESGGGLVQAGGSLRLSCAASGLTFPIYAMGWYRQAPGKEREFVAVITTSGGSTYYSDSVKGRFTISRDNAKNTVYLQMNSLKPEDTAVYYCNARRIRHYYWGQGTQVTVSS | high polyreactivity
11 | QVQLVESGGGLVQAGGSLRLSCAASGSIFRNYAMGLYRQAPGKERELVAAISSRGGTTHYADSVKGRFTISRDNAKNTVYLQMNSLKPEDTAVYYCAADYYLATNPAPLAAGRGYWGQGTQVTVSS | high polyreactivity
12 | QVQLVESGGGLVQAGGSLRLSCAASGLILDGYAMGWYRQAPGKERELVAAITRSGGRTYYADSVKGRFTISRDNAKNTVYLQMNSLKPEDTAVYYCAALGWSGRYRYDYWGQGTQVTVSS | high polyreactivity
13 | QVQLVESGGGLVQAGGSLRLSCAASGSIFVYNAKGWYRQAPGKERELVAAISSSGSSTYYADSVKGRFTISRDNAKNTFYLQMNSLKPEDTAVYYCAADPARYGYWNSYDYWGQGTQVTVSS | high polyreactivity
14 | QVQLVESGGGLVQAGGSLRLSCAASGFTFPYYAMGRYRQAPGKERELVAAITRSGGSTNYADSVKGRFTISRDNAKNTVYLQMNSLKPEDTAVYYCNAPPGYSSTRNGYWGQGTQVTVSS | high polyreactivity
15 | QVQLVESGGGLVQAGGSLRLSCAASGRIFAYNAMGLYRQAPGKERELVADISSGGNTYYADSVKGRFTISRDNAKNTVYLQMNSLKPEDTAVYYCAKYTYDYWGQGTQVTVSS | low polyreactivity
16 | QVQLVESGGGLVQAGGSLRLSCAASGSIFKAHTMGWYRQAPGKERELVAAISGSGGRTRYADSVKGRFTISRDNAKITVYLQMNSLKPDVTAVYYCAASDRGGYYYWGQGTQVTVSS | high polyreactivity
17 | QVQLVESGGGLVQAGGSLRLSCAASGRIFGQNAMGWYRQAPGKERELVADITGSGGRTYYADSVKGRFTISRDNAKNTVYFQMNSLKPEDTAVYYCAVRVTSYYRTMVYWGQVTQVTVSS | low polyreactivity
18 | QVQLVETGGGLVQAGGSLRLSCAASGSIFERYAMGWYRQAPGKEREFVATITSGGGRTYYADSVKGRFTISRDNAKNTVYLQMNSLKPEDTAVYYCAAASYRRQPFNYWGQGTQVTVSS | high polyreactivity
19 | QVQLVESGGGLVQAGGSLRLSCAASGLIFYKNAMGSYRQAPGKEREFVAAISRSGASTYYSDSVMGRFTISRDYAKNTVYLQMKSLKPEVTEVYLCAARAGANYRMDYWGQGTQVTVSS | high polyreactivity
20 | QVQLVESGGGLVQAGGSLRLRCAASGRTFAVYAMGWYRQAPGKERELVAAITLGASRTYYADSVKGRFTISRDNAKNTVYLQMNSLKPEDTAVYYCAVTWGARTDQWSLRVFVGYDYWGQGTQVTVSS | low polyreactivity
21 | QVQLVESGGGLVQAGGSLRLSCAASGIIFRPYAMGWYRQAPGKERELVASITLSGGSTYYADSVKGRFTISRDNAKNTVYLQMNSLKPEDTAVYYCNRYPRLRVVPSRYVKYDYWGQGTQVTVSS | low polyreactivity
22 | QVQLVESGGGLVQAGGSLRLSCAASGSIFHDYAMGWYRQAPGKEREMVAAIRWSGGSTYYADSVKGRFTISRDNAKNTVYLQMNSLKREETAVYYCNAVTFGRDNVQLVKFGYWGQGTQVTVSS | low polyreactivity

Row | Sequence | polyreactivity (PSR sort gate)
23 | QVQLVESGGGLVQAGGSLRLSCAASGLTFYPNAMGWYRQAPGKEREFVASISISGRTYYADSVKGRFTISRDNAKNTVYLQMNSLKPEDTAVYYCAARYVRSGLYRKYDYWGQGTQVTVSS | high polyreactivity
24 | QVQLVESGGGLVQAGGSLRLSCAASGITFRYYAMGWYRQAPGKERELVAAISYSGGSTYYADSVKGRFTISRDNAKNTVYLQMNRLKPEDTAVYYCNRVWTRLVTYPEYDYWGQGTQVTVSS | high polyreactivity
25 | QVQLVESGGGLVQAGGSLRLSCAASGRIFLRYAMGGYRAAPGKERELVAAISTRGSSTYYADSVKGRFTNSRDNAKNTVYLQMNSLKPEDTAVYYCNKAWGPRRGVNVAFDYWGQGTQVTVSS | low polyreactivity
26 | QVQLVESGGGLVQAGGSLRLSCAASGRTFYGYAMGWYRQAPGKERELVATISWSGGRTNYADSVKGRFTISRDNAKNTVYLQMNSLKPEDTAVYYCAAPYRLSKYDYWGQGTEVTVSS | high polyreactivity
27 | QVQLVESGGGLVQAGGSLRLSCAASGRIFWEYAMGWYRQAPGKERELVAAITWRVGSTYYADSVKGRFTISRDNAKNTVYLQMNSLKPEDTAVYYCVARSQSIRYTYIRSYYWGQGTQVTVSS | low polyreactivity
28 | QVQLVESGGGLVQAGGSLRLSCAASGLIFSPYAMGWYRQAPGKERELVAAITWSGGSTYYADSVKGRFTISRDNAKNTVYLQMNSLKPEDTAVYYCNAVTTRLALYDYWGQGTQVTVSS | high polyreactivity
29 | QVQLEESGGGLVQAGGSLRLSCAASGIIFQRNDMGWYRQAPGKERELVANIRDGGITYADSVKGRFTISRDNAKNTVYLQMNSLKPEDTAVYYCARDDTSPGYCDQSSNAAYYYWGQGTQVTVSS | low polyreactivity
30 | QLQLVESGGGLVQAGGSLRLSCAASGRTFYQYAMGWYRKAPGKERELVAAITTSGGSTYYADSVKGRFTISRDNAKNTVYLQMNSLKPEYTAVYYCAAPYTGYRERGSYKSDYWGQGTQVTVSS | low polyreactivity
31 | QVQLVESGGRLVQAGGSLRLRCAASGSTFMSNAMGWYRPAPGKERELVAAITGSGGNTYYADSVKGRFTISRDNAKNTVYLQMNSLKPEDTAVYYCAAVAPRSNYWRGYYYWGQGTQVTVSS | high polyreactivity
32 | QVQLVESRGGLVQAGGSLRLSCAASGYTFDANAMGWYRQAPGKERELVASISSISDSTDYADSVKGRFTISRDNAKNTVYLQMNSLKPVDTAVYYCARSDVKPGRQERDYWGQGTQVTVSS | low polyreactivity
33 | QVQLVESGGGLVQAGGSLRLSCAASGITFFGKYAMGWYRQAPGKERELVAAISWSGGRTYYADSVKGRFTISRDNAKNTVYLQMNSLKPEDTAVYYCAVYPRDAERYGYWGQGTQVTVSS | high polyreactivity
34 | QVQLVESGGGLVQAGGSLRLSCAASGRTFKYNAMGWYRQAPGKERELVAAISSDDSTNYADSVKGRFTISRDNAKNTVYLQMNSLKPEDTAVYYCAARYGYSKWPDRVQAYKHDYWGQGTQVTVSS | low polyreactivity
35 | QVQLVESRGGLVQAGGSIRLSCAASGRIFVTYAMGWYRQAPGKERELVAVISWSGGSTYYADSVKGRFTISRDNAKNTVYLQMNSLKPEDTAVYYCARGLRKVRFDFWGQGTQVTVSS | low polyreactivity
36 | QVQLVESGGGLVQAGGSLRLSCAASGSIFVYNAMGWYRQAPGKEREFVAGITFIGGSTYYADSVKGRFTISRDNAKNTVYLKMNSLKPEDTAVYYCNADVAPGIFYGYDSWGQGSQVTVSS | low polyreactivity
37 | QVQLVESGGGLVQAGGSLRLSCAASGSIFEAYAMGWYRQAPGKEREVVAVISWRGGRTYYADSVKGRFTISRDNAKNTVYLQMNSLNPEDTAVYYCNKAYWWHQVGLPRNYEYWGQGTQVTVSS | low polyreactivity
38 | QVQLVESGGGLVQAGGSLRLSCAASGRIFPGYAMGWYRQAPGKERELVAGISNDASTNYADSVKGRFTISRDNAKNTVYLQMNSLKPEDTAVYYCAAEISYLSVPRYDDWGQGTQVTVSS | low polyreactivity
39 | QVQLVESGGGLVQAGGSLRLSFAASGRTFIGYAMGWSRQAPGKERELVAGISWSGGSTYYADSVKGRFTISRDNAKNTVYLQMNSLKPEDTAVYFCAARGRWSTEYRYWGQGTQVTVSS | low polyreactivity
40 | QVQLVESGGGLVQAGGSLRLSCAASGRTLSIYAMGMYRQAPGKEMELVASISSSGGRTDYADSVKGRFTISRDNAKYTVYLQMNSLKPEDTAVYYCAADGGYYYPYRGYHKYYYWGQGTLVTVSS | low polyreactivity
41 | QVQLVESGGGLVQAGGSLRLSCAASGITFYLYAMGWYRQAPGKERELVAAISRGGSTNYADSVKGRFTISRDNAKNTVYLQMNSLKPEDTAVYYCAAVDRYGFGYWGQGTQVTVSS | high polyreactivity
42 | QVQLVESGGGLVQAGGSLRLSCAASGRIFFTNTMGWYRQAPGKERELVAAITRSGTRTYYADSVKGRFTISRDNAKNTVYLQMNSLKPEDTAVYYCNAVVRQLVRYDYWGQGTQVTVSS | high polyreactivity
43 | QVQLVESGGGLVQAGGSLRLSCASSGRTFRYYAMGWYRQAPGKERELVAAIRSGGITNYADSVKGRFTISRDNAKNTVYLQMNSLKPEDTAVYYCAVETPSTWFSGWGYDYDYWGQGTQVTVSS | high polyreactivity
